What all share (details): chain copies: 4; label: 32P
Series [1] has as its target T1, p53 Arg284 delta364-393 (Homo sapiens, UniProt P04637 SEQ:1-363). Kind of series: EMSA; enhancement not noted on this site. The method, then:
(§1) For analysis of DNA binding activity, these proteins were incubated with ^32P-labeled oligonucleotides and subjected to electrophoresis as described [Halazonetis (1993a and 1993b) and Waterman (1995), both cited above]. […] CCC-GAACA-TGTCC-CAACA-TGTTG-GGG, each contain a p53 binding site, which is underlined. […] Oligonucleotide Egadd45has the sequence [SEQ ID NO: 31] ACA-GAACA-TGTCT-AAGCA-TGCTG-GGGA. Oligonucleotide TF3, which contains three tandem repeats of [SEQ ID NO: 32] […], is a non-specific DNA [Halazonetis et al, *EMBO J.*, 12:1021–1028 (1993)].
(§2) Figure 4: FIG. 4 illustrates the effect of the Thr284 to Arg substitution on binding of wild-type p53 and tumor-derived p53 mutants to a high affinity DNA site, and to the sites in the p21^cip1 and gadd45 genes (oligonucleotides BC, Ep21 and Egadd45, respectively). Binding was assayed by gel retardation shift analysis on native electrophoretic gels. Only the region of the gel corresponding to the p53-DNA complexes is shown. The amino acids are abbreviated using the single letter code: Arg, R; Cys, C; Gln, Q; His, H; Lys, K.

For series [2], the target named is p53 delta364-393 (Homo sapiens, UniProt P04637 SEQ:1-363). Kind of series: EMSA. The method, then: as §1, §2
Series [3] concerns the target p53 Ser249 (Homo sapiens, UniProt P04637 SEQ:1-393). Nature of the series: EMSA; not activated by PAb421. The method, then: as §1
Series [4] addresses T1, p53 Arg284 delta364-393. Nature of the series: EMSA; enhanced vs wild type. The method, then: as §1, §2

B1: oligonucleotide Egadd45 (dsDNA)
DNA 1: ACAGAACATGTCTAAGCATGCTGGGGA
DNA 2: TCCCCAGCATGCTTAGACATGTTCTGT
Consider B1, for which the binding result in series [1] and in series [2] was “binds” in each case.

B2: oligonucleotide BC (dsDNA)
DNA 1: CCGGGCATGTCCGGGCATGTCCGGGCATGT
DNA 2: ACATGCCCGGACATGCCCGGACATGCCCGG
Regarding B2, the values for the binding result in series [3] and in series [4] were “no binding” and “binds”, respectively.

B3: oligonucleotide Ep21 (dsDNA)
DNA 1: CCCGAACATGTCCCAACATGTTGGGG
DNA 2: CCCCAACATGTTGGGACATGTTCGGG
B3: in series [4], the binding result is given as “binds”.

(Values after US5847083, “Modified p53 constructs which enhance DNA binding” (The Wistar Institute of Anatomy and Biology).)
